Measured values reported in the supplement of paper PMC5998384.

Tests used:
HeLa Kyoto [1] = experiment: melting temperature (median over replicates), in situ; higher = more thermally stable
HeLa Kyoto [2] = experiment: solubility change mitosis vs G1/S (difference of NP-40 vs SDS log2 ratios) (log2 ratio difference); higher = more soluble in mitosis
HeLa Kyoto [3] = experiment: solubility in G1/S (NP-40 vs SDS abundance) (log2 ratio); higher = more soluble; details: cell cycle stage: G1/S
HeLa Kyoto [4] = experiment: thermal stability score vs G1/S (z-score of summed log2 fold changes over temperatures); higher = more thermally stable than in G1/S
[5] = cell cycle stage: early G1 (4.5 h after nocodazole release)
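Throughout, for melting temperature (median over replicates), in situ: HeLa Kyoto cells synchronized by double thymidine or nocodazole block, proteins quantified by TMT10plex mass spectrometry, three independent biological replicates.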
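Throughout, for solubility change mitosis vs G1/S (difference of NP-40 vs SDS log2 ratios): synchronized HeLa Kyoto cells (double thymidine block for G1/S, nocodazole release for mitosis), protein amounts in NP-40 versus SDS lysates quantified by mass spectrometry, three biological replicates.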
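Throughout, for solubility in G1/S (NP-40 vs SDS abundance): HeLa Kyoto cells arrested at G1/S by double thymidine block, proteins quantified by TMT10plex mass spectrometry in mild NP-40 versus SDS extracts, three biological replicates.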
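Throughout, for thermal stability score vs G1/S (z-score of summed log2 fold changes over temperatures): synchronized HeLa Kyoto cells, proteins quantified by TMT10plex mass spectrometry, three biological replicates, mitosis taken 0.5 h after nocodazole release, G1/S directly after double thymidine block.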

| Sequence | melting temperature (HeLa Kyoto [1]; cell cycle stage: G1/S) [°C] | melting temperature (HeLa Kyoto [1]; cell cycle stage: mitosis) [°C] | solubility change mitosis (log2) (HeLa Kyoto [2]) | solubility in G1/S (log2) (HeLa Kyoto [3]) | thermal stability score (HeLa Kyoto [4]; [5]) | thermal stability score (HeLa Kyoto [4]; cell cycle stage: mitosis) |
| --- | --- | --- | --- | --- | --- | --- |
| MLSLRVPLAPITDPQQLQLSPLKGLSLVDKENTPPALSGTRVLASKTARRIFQEPTEPKTKAAAPGVEDEPLLRENPRRFVIFPIEYHDIWQMYKKAEASFWTAEEVDLSKDIQHWESLKPEERYFISHVLAFFAASDGIVNENLVERFSQEVQITEARCFYGFQIAMENIHSEMYSLLIDTYIKDPKEREFLFNAIETMPCVKKKADWALRWIGDKEATYGERVVAFAAVEGIFFSGSFASIFWLKKRGLMPGLTFSNELISRDEGLHCDFACLMFKHLVHKPSEERVREIIINAVRIEQEFLTEALPVKLIGMNCTLMKQYIEFVADRLMLELGFSKVFRVENPFDFMENISLEGKTNFFEKRVGEYQRMGVMSSPTENSFTLDADF [RRM2] | 56.8 | 56.4 | 0.14 | -0.239 | -6.63 | -8.23 |
| MLSQVYRCGFQPFNQHLLPWVKCTTVFRSHCIQPSVIRHVRSWSNIPFITVPLSRTHGKSFAHRSELKHAKRIVVKLGSAVVTRGDECGLALGRLASIVEQVSVLQNQGREMMLVTSGAVAFGKQRLRHEILLSQSVRQALHSGQNQLKEMAIPVLEARACAAAGQSGLMALYEAMFTQYSICAAQILVTNLDFHDEQKRRNLNGTLHELLRMNIVPIVNTNDAVVPPAEPNSDLQGVNVISVKDNDSLAARLAVEMKTDLLIVLSDVEGLFDSPPGSDDAKLIDIFYPGDQQSVTFGTKSRVGMGGMEAKVKAALWALQGGTSVVIANGTHPKVSGHVITDIVEGKKVGTFFSEVKPAGPTVEQQGEMARSGGRMLATLEPEQRAEIIHHLADLLTDQRDEILLANKKDLEEAEGRLAAPLLKRLSLSTSKLNSLAIGLRQIAASSQDSVGRVLRRTRIAKNLELEQVTVPIGVLLVIFESRPDCLPQVAALAIASGNGLLLKGGKEAAHSNRILHLLTQEALSIHGVKEAVQLVNTREEVEDLCRLDKMIDLIIPRGSSQLVRDIQKAAKGIPVMGHSEGICHMYVDSEASVDKVTRLVRDSKCEYPAACNALETLLIHRDLLRTPLFDQIIDMLRVEQVKIHAGPKFASYLTFSPSEVKSLRTEYGDLELCIEVVDNVQDAIDHIHKYGSSHTDVIVTEDENTAEFFLQHVDSACVFWNASTRFSDGYRFGLGAEVGISTSRIHARGPVGLEGLLTTKWLLRGKDHVVSDFSEHGSLKYLHENLPIPQRNTN [ALDH18A1] | 52.5 | 52.1 | -0.0142 | -0.0382 | -0.326 | -2.31 |
| MLSRAVCGTSRQLAPVLGYLGSRQKHSLPDLPYDYGALEPHINAQIMQLHHSKHHAAYVNNLNVTEEKYQEALAKGDVTAQIALQPALKFNGGGHINHSIFWTNLSPNGGGEPKGELLEAIKRDFGSFDKFKEKLTAASVGVQGSGWGWLGFNKERGHLQIAACPNQDPLQGTTGLIPLLGIDVWEHAYYLQYKNVRPDYLKAIWNVINWENVTERYMACKK [SOD2] | 58.3 | 56.8 | 0.133 | 0.614 | -0.479 | -0.233 |
| MLSSTDFTFASWELVVRVDHPNEEQQKDVTLRVSGDLHVGGVMLKLVEQINISQDWSDFALWWEQKHCWLLKTHWTLDKYGVQADAKLLFTPQHKMLRLRLPNLKMVRLRVSFSAVVFKAVSDICKILNIRRSEELSLLKPSGDYFKKKKKKDKNNKEPIIEDILNLESSPTASGSSVSPGLYSKTMTPIYDPINGTPASSTMTWFSDSPLTEQNCSILAFSQPPQSPEALADMYQPRSLVDKAKLNAGWLDSSRSLMEQGIQEDEQLLLRFKYYSFFDLNPKYDAVRINQLYEQARWAILLEEIDCTEEEMLIFAALQYHISKLSLSAETQDFAGESEVDEIEAALSNLEVTLEGGKADSLLEDITDIPKLADNLKLFRPKKLLPKAFKQYWFIFKDTSIAYFKNKELEQGEPLEKLNLRGCEVVPDVNVAGRKFGIKLLIPVADGMNEMYLRCDHENQYAQWMAACMLASKGKTMADSSYQPEVLNILSFLRMKNRNSASQVASSLENMDMNPECFVSPRCAKRHKSKQLAARILEAHQNVAQMPLVEAKLRFIQAWQSLPEFGLTYYLVRFKGSKKDDILGVSYNRLIKIDAATGIPVTTWRFTNIKQWNVNWETRQVVIEFDQNVFTAFTCLSADCKIVHEYIGGYIFLSTRSKDQNETLDEDLFHKLTGGQD [FERMT1] | 50.2 | 49.8 | -0.199 | -0.0778 | -0.277 | -0.501 |
| MLTNLRIFAMSHQTIPSVYINNICCYKIRASLKRLKPHVPLGRNCSSLPGLIGNDIKSLHSIINPPIAKIRNIGIMAHIDAGKTTTTERILYYSGYTRSLGDVDDGDTVTDFMAQERERGITIQSAAVTFDWKGYRVNLIDTPGHVDFTLEVERCLRVLDGAVAVFDASAGVEAQTLTVWRQADKHNIPRICFLNKMDKTGASFKYAVESIREKLKAKPLLLQLPIGEAKTFKGVVDVVMKEKLLWNCNSNDGKDFERKPLLEMNDPELLKETTEARNALIEQVADLDDEFADLVLEEFSENFDLLPAEKLQTAIHRVTLAQTAVPVLCGSALKNKGIQPLLDAVTMYLPSPEERNYEFLQWYKDDLCALAFKVLHDKQRGPLVFMRIYSGTIKPQLAIHNINGNCTERISRLLLPFADQHVEIPSLTAGNIALTVGLKHTATGDTIVSSKSSALAAARRAEREGEKKHRQNNEAERLLLAGVEIPEPVFFCTIEPPSLSKQPDLEHALKCLQREDPSLKVRLDPDSGQTVLCGMGELHIEIIHDRIKREYGLETYLGPLQVAYRETILNSVRATDTLDRTLGDKRHLVTVEVEARPIETSSVMPVIEFEYAESINEGLLKVSQEAIENGIHSACLQGPLLGSPIQDVAITLHSLTIHPGTSTTMISACVSRCVQKALKKADKQVLEPLMNLEVTVARDYLSPVLADLAQRRGNIQEIQTRQDNKVVIGFVPLAEIMGYSTVLRTLTSGSATFALELSTYQAMNPQDQNTLLNRRSGLT [GFM2] | 49.2 | 49.3 | -0.0596 | -0.0849 | 1.87 | 1.26 |
| MLTRVKSAVANFMGGIMAGSSGSEHGGGSCGGSDLPLRFPYGRPEFLGLSQDEVECSADHIARPILILKETRRLPWATGYAEVINAGKSTHNEDQASCEVLTVKKKAGAVTSTPNRNSSKRRSSLPNGEGLQLKENSESEGVSCHYWSLFDGHAGSGAAVVASRLLQHHITEQLQDIVDILKNSAVLPPTCLGEEPENTPANSRTLTRAASLRGGVGAPGSPSTPPTRFFTEKKIPHECLVIGALESAFKEMDLQIERERSSYNISGGCTALIVICLLGKLYVANAGDSRAIIIRNGEIIPMSSEFTPETERQRLQYLAFMQPHLLGNEFTHLEFPRRVQRKELGKKMLYRDFNMTGWAYKTIEDEDLKFPLIYGEGKKARVMATIGVTRGLGDHDLKVHDSNIYIKPFLSSAPEVRIYDLSKYDHGSDDVLILATDGLWDVLSNEEVAEAITQFLPNCDPDDPHRYTLAAQDLVMRARGVLKDRGWRISNDRLGSGDDISVYVIPLIHGNKLS [PPM1H] | 55.9 | 56.9 | 0.221 | 0.29 | -2.63 | -1.3 |
